Laboratory results taken from the Human Domainome abundance scans (Beltran et al. 2025).
± gives the uncertainty stated by the source.

B1: POU domain, class 3, transcription factor 2, residues 262 to 338; numbered along this chain, P20265 (parent)
chain: EDTPTSDDLEQFAKQFKQRRIKLGFTQADVGLALGTLYGNVFSQTTICRFEALQLSFKNMCKLKPLLNKWLEEADSS

Variants of: B1
Assay: abundance fitness (aPCA) (normalised: wild type 0, dead -1); higher = more abundant; growth selection in yeast, the domain comes from the species named
Settings: Homo sapiens

Variant	abundance fitness
L23I	-0.565 ± 0.12
L23E	-0.578 ± 0.061
F16E	-0.618 ± 0.058
F16V	-0.671 ± 0.042
F16Q	-0.647 ± 0.088
F16K	-0.633 ± 0.079
F16T	-0.677 ± 0.057
F16Y	-0.767 ± 0.15
F16L	-0.477 ± 0.035
F16H	-0.91 ± 0.19
F16G	-0.818 ± 0.044
Q15C	-0.147 ± 0.059
Q15G	-0.141 ± 0.027
Q15S	0.013 ± 0.036
Q15W	-0.033 ± 0.034
Q15T	-0.038 ± 0.045
Q15E	0.018 ± 0.038
Q15M	0.051 ± 0.042
Q15H	0.042 ± 0.1
W70D	-0.431 ± 0.15
W70M	-0.669 ± 0.084
W70R	-0.649 ± 0.039
W70S	-0.742 ± 0.065
W70H	-0.943 ± 0.21

Variant	abundance fitness
W70I	-0.64 ± 0.15
L53E	-0.311 ± 0.053
L53M	0.017 ± 0.042
L53N	-0.022 ± 0.11
L53Q	-0.034 ± 0.049
L53Y	0.018 ± 0.07
L53V	-0.009 ± 0.031
Q27L	-0.167 ± 0.035
Q27T	0.04 ± 0.044
D7A	-0.154 ± 0.1
D7P	-0.143 ± 0.3
G31W	-0.207 ± 0.049
G31I	-0.399 ± 0.14
G31Q	-0.188 ± 0.054
G31M	-0.291 ± 0.058
E1D	-0.014 ± 0.089
E1K	-0.105 ± 0.18
E1S	-0.164 ± 0.076
E51V	-0.965 ± 0.09
P4S	-0.018 ± 0.039
P4G	-0.01 ± 0.035
P4N	-0.095 ± 0.079
P4D	0.029 ± 0.057
P4A	-0.03 ± 0.036

Variant	abundance fitness
P4L	0.164 ± 0.036
P4W	0.091 ± 0.044
R19N	-0.182 ± 0.095
R19T	-0.049 ± 0.047
R19P	-0.961 ± 0.17
R19M	-0.1 ± 0.049
A13H	-0.544 ± 0.094
A13D	-0.865 ± 0.14
A13Q	-0.73 ± 0.12
A13M	-0.259 ± 0.11
A13Y	-0.845 ± 0.17
A13P	-0.731 ± 0.083
A13W	-0.913 ± 0.14
A74T	-0.026 ± 0.05
A74M	-0.088 ± 0.049
A74Q	-0.046 ± 0.055
A74Y	-0.151 ± 0.069
A74L	-0.09 ± 0.037
K17P	-0.658 ± 0.087
K17I	-0.349 ± 0.072
K17Q	-0.025 ± 0.039
K17W	-0.832 ± 0.064
K17N	-0.895 ± 0.22
D2R	-0.03 ± 0.029

Variant	abundance fitness
P65S	-0.38 ± 0.19
P65K	-0.213 ± 0.22
P65V	-0.082 ± 0.074
P65D	-0.118 ± 0.097
P65Y	0.137 ± 0.23
P65W	-0.201 ± 0.092
P65N	-0.138 ± 0.17
Q44A	0.033 ± 0.031
Q44K	-0.009 ± 0.042
D8V	-0.153 ± 0.035
D8T	-0.093 ± 0.055
D8H	-0.052 ± 0.097
D8K	-0.074 ± 0.07
D8E	0.079 ± 0.041
D8I	-0.423 ± 0.12
D8P	-0.34 ± 0.066
D8R	-0.234 ± 0.029
L32V	-0.448 ± 0.34
L32S	-0.197 ± 0.14
L32K	0.493 ± 0.48
M60L	-0.282 ± 0.039
M60N	-0.561 ± 0.33
M60K	-0.97 ± 0.18
M60H	-0.367 ± 0.17

Variant	abundance fitness
M60V	-0.553 ± 0.043
M60T	-0.337 ± 0.054
M60D	-0.961 ± 0.2
L37D	-0.118 ± 0.046
L37V	-0.042 ± 0.029
L37T	0.048 ± 0.044
L37A	-0.023 ± 0.034
L37N	-0.121 ± 0.066
L37H	-0.194 ± 0.072
L37P	-0.293 ± 0.062
F42M	-0.004 ± 0.047
F42L	0.053 ± 0.034
F42C	-0.006 ± 0.049
G35E	-0.076 ± 0.035
G35M	-0.174 ± 0.042
G35W	-0.239 ± 0.037
G35C	-0.113 ± 0.041
G35T	0.052 ± 0.038
T36N	0.052 ± 0.066
T36A	-0.021 ± 0.033
T36H	0.015 ± 0.059
T36F	-0.342 ± 0.11
T36I	-0.184 ± 0.093
A33M	-0.077 ± 0.041

Variant	abundance fitness
A33H	-0.002 ± 0.075
A33C	-0.19 ± 0.051
K58W	-0.235 ± 0.044
K58L	-0.163 ± 0.042
K58S	-0.053 ± 0.051
K58H	-0.486 ± 0.26
F12L	-0.776 ± 0.17
F12G	-0.582 ± 0.14
F12R	-0.401 ± 0.11
C61L	-0.001 ± 0.029
C61W	-0.158 ± 0.03
C61S	-0.165 ± 0.034
R20Y	-0.63 ± 0.17
R20I	-0.794 ± 0.31
R20E	-0.712 ± 0.079
R20T	-1.13 ± 0.19
R20K	-1.25 ± 0.35
T5H	-0.079 ± 0.064
T5F	-0.109 ± 0.094
N68M	-0.284 ± 0.27
T45P	-0.261 ± 0.045
T45Q	0.005 ± 0.039
T45H	-0.066 ± 0.062
T45G	-0.097 ± 0.026

Variant	abundance fitness
T45Y	-0.338 ± 0.097
Y38T	0.032 ± 0.039
Y38E	-0.199 ± 0.038
Y38F	-0.036 ± 0.061
Y38W	-0.341 ± 0.044
Y38R	-0.27 ± 0.031
Y38A	-0.069 ± 0.04
L9R	-0.716 ± 0.047
L9E	-0.797 ± 0.093
L9A	-0.491 ± 0.041
R49F	-0.694 ± 0.18
G39Y	-0.533 ± 0.16
G39S	-0.321 ± 0.04
G39D	-0.079 ± 0.053
G39M	-0.624 ± 0.074
G39K	-0.219 ± 0.054
G39L	-0.754 ± 0.076
K64E	-0.3 ± 0.046
K64R	-0.092 ± 0.031
K64N	-0.944 ± 0.26
N59Y	-0.103 ± 0.068
N59R	0.059 ± 0.029
N59M	0.049 ± 0.045
